# T1: hResistin (human, UniProt Q9HD89 19-108)
# T1 construct: Immobilised on the SPR chip; also called human resistin; resistin protein
# T1 sequence (looked up): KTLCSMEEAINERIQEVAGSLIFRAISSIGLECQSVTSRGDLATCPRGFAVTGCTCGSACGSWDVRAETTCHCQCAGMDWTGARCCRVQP
# B1: VS_peptide (SEQ ID NO: 2) (peptide)
# peptide: PPPPGPPPPPVSTSSGSDES
# notes: Synthesised by Peptron, Korea; also called peptide VS; Existing peptide
# Target: T1, hResistin
# Assay: SPR (Reichert SR7500DC), hResistin immobilised on CMDH chip, peptide injected in PBS
# Description: To measure the direct binding of hResistin and VS_peptide (SEQ ID NO: 2), SPR analysis was performed using Reichert SR7500DC system. hResistin (1.8 ug) and hPCSK9 (1.6 ug) proteins were immobilized on the carboxymethyl dextran hydrogel surface sensor chip (CMDH chip, Cat#: 13206066) by using a 10 mM sodium acetate immobilization buffer (pH 5.5 or pH 4.5). VS_peptide (SEQ ID NO: 2) diluted in PBS buffer (pH 7.4) in a dose-dependent manner was injected into the sensor chip (flow rate: 30 μl/min, association time: 3 min) to measure the response unit (RU) for binding strength. After the measurement of RU values for binding strength, PBS buffer (pH 7.4) was allowed to flow over the sensor chip at a rate of 30 μl/min for 3 minutes to measure dissociation RU values of VS_peptide (SEQ ID NO: 2) from hResistin immobilized on the chip. The dissociation equilibrium constant (KD) of VS_peptide (SEQ ID NO: 2) for hResistin was derived using Scrubber2 software (KD=Kd/Kₐ, Kₐ=association rate, Kd=dissociation rate).
binder,measurement,value
B1,Kd,3.7 mM
